± gives the standard error. For some assays here: Variants at the floor of the assay were thinned out.
B1: glmS ribozyme (parent)
chain: AUAAAAGCGCCAGAACUACAGAAAUGUAGUUGACGAGGAGGAGGUUUAUCGAAUUUUCGGCGGAUGCCUCCAAA

Tests used:
Conditions in all cases: with glucosamine-6-phosphate
[1] = variants of: B1; test: kcat; higher = faster cleavage; RNA array
Summary of the method: (§1)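 Barcoded ribozyme variants were transcribed in situ on sequenced MiSeq chips by E. coli RNA polymerase. At 37 °C, a hybridised Cy3 probe tracked them while glucosamine-6-phosphate (40 μM to 10 mM) in HEPES/KCl/Mg(OAc)2 buffer flowed in and tiles were imaged over ~14 h. Per-tile medians of signals normalised to baseline and to non-cleaving reference variants were fit to one- or two-exponential decays, giving kobs. kcat and KM came from weighted Michaelis–Menten fits across concentrations.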

[2] = variants of: B1; test: self-cleavage kobs at 640 uM GlcN6P; higher = faster cleavage; RNA array
Summary of the method: as §1

[3] = variants of: B1; test: self-cleavage kobs at 2500 uM GlcN6P; higher = faster cleavage; RNA array
Summary of the method: as §1

[4] = variants of: B1; test: self-cleavage kobs at 160 uM GlcN6P; higher = faster cleavage; RNA array
Summary of the method: as §1

[5] = variants of: B1; test: self-cleavage kobs at 10000 uM GlcN6P; higher = faster cleavage; RNA array
Summary of the method: as §1

[6] = variants of: B1; test: KM; higher = weaker cofactor use; RNA array
Summary of the method: as §1

[7] = variants of: B1; test: self-cleavage kobs at 40 uM GlcN6P; higher = faster cleavage; RNA array
Summary of the method: as §1

Row | Variant | kcat [1] [s⁻¹] | self-cleavage kobs at 640 uM GlcN6P [2] [s⁻¹] | self-cleavage kobs at 2500 uM GlcN6P [3] [s⁻¹] | self-cleavage kobs at 160 uM GlcN6P [4] [s⁻¹] | self-cleavage kobs at 10000 uM GlcN6P [5] [s⁻¹] | KM [6] [µM] | self-cleavage kobs at 40 uM GlcN6P [7] [s⁻¹]
1 | AUAAAAGCGCCAGAACUACAGAAAUGUAGUUGACGAGGAGGAGGUUUAUCGAAUUUUCGGCGGAUGUCUGCAAA [C67U C70G] | 2.32e-05 ± 6.8e-06 | 2.59e-05 ± 9e-06 | 2.88e-05 ± 6.7e-06 | – | – | – | –
2 | AUAAAAGCGCCAGAACUACAGAAAUGUAGUUGACGAGGAGGAGGUUUAUCGAAUUUUCGGCGGAUGCAUCAAAA [C68A C71A] | < 1e-05 | – | – | < 1e-05 | < 1e-05 | – | –
3 | AUAAAUGCGCGAGAACUACAGAAAUGUAGUUGACGAGGAGGAGGUUUAUCGAAUUUUCGGCGGAUGCCUCCAAA [A6U C11G] | – | – | – | – | – | 1370 ± 460 | –
4 | AUAAAAGCGCCAGAACUACAGAAAUGUAGUUGACGAGUGGGAGGUUUAUCGAAUUUUCGGCGGAUGCCUCCAAA [G38U A39G] | – | – | – | – | – | 2660 ± 1000 | –
5 | AUAAAAGCGCCAGAACUACAGAAAUGUAGUUGACGAGGAGGAGGUUUAUCGAAUUUUCGGCGGAUGACUCGAAA [C67A C71G] | 7.2e-05 ± 7e-06 | 6.96e-05 ± 6.6e-06 | 8.16e-05 ± 8.2e-06 | 5.48e-05 ± 8.6e-06 | 6e-05 ± 6.9e-06 | – | –
6 | AUAAAAGCGCCAGAACUACAGAAAUGUAGUUGACGAGGAGGAGGUUUAUCGAAUUUUCGGCGGAUGCUUCCAAA [C68U] | 0.00795 ± 0.003 | 0.0015 ± 6.4e-05 | 0.00371 ± 0.00012 | 0.000316 ± 1.2e-05 | – | 2930 ± 1200 | 0.000113 ± 1.6e-06
7 | AUAAAAGCUCCAGAACUACAGAAAUGUAGUUGACGAGGAGGAGGUUUCUGGAAUUUUCGGCGGAUGCCUCCAAA [G9U A48C C50G] | – | – | – | – | – | 92.6 ± 7.4 | –
8 | AUAAAAGCGCCAGAACUACAGAAAUGUAGUUGACGAGGAGGAGGUUUAUCGAAUUUUCGGCGGAUGCCACGAAA [U69A C71G] | 3.77e-05 ± 9.7e-06 | 5.27e-05 ± 1.5e-05 | 4.01e-05 ± 9.2e-06 | – | – | – | –
9 | AUAAAAGCGCCAGUACUACAGAAAUGUAGUUGACAAGGAGGAGGUUUAUCGAAUUUUCGGCGGAUGCCUCCAAA [A14U G35A] | – | – | – | – | – | 6.51 ± 1.5 | –
10 | AUAAAAGCGCCAGAACUACAGAAAUGUAGUUGACGAGGAGGAGGUUUAUCGAAUUUUCGGCGGAUGCCGCGAAA [U69G C71G] | 5.4e-05 ± 2.4e-05 | 9.05e-05 ± 1.6e-05 | 3.23e-05 ± 1.5e-05 | – | – | – | –
11 | AUAAAAGCGCCAGAACUACAGAAAUGUAGUUGACGAGGAGGAGGUUUAUCGAAUUUUCGGCGGAUGCCGACAAA [U69G C70A] | 4.72e-05 ± 1.5e-05 | 5.13e-05 ± 9.1e-06 | 7.85e-05 ± 1.2e-05 | 4.55e-05 ± 1.3e-05 | – | – | –
12 | AUAAAAGCGCCAGACCUACAGAAAUGUAGUUGACGAGUAGGAGGUUUAUCGAAUUUUCGGCGGAUGCCUCCAAA [A15C G38U] | – | – | – | – | – | 67.7 ± 27 | –
13 | AUAAAAGCGCCAGAACUACAGAAAUGUAGUUGACGAGGAGGAGGUUUAUCGAAUUUUCGGCGGAUGCCUUAAAA [C70U C71A] | 0.000245 ± 1.7e-05 | 0.00013 ± 1.4e-05 | 0.00018 ± 2.3e-05 | 5.23e-05 ± 9.7e-06 | 0.000247 ± 3e-05 | 607 ± 110 | –
14 | AUAAAAGCGCCAGAACUACAGAAAUGUAGUUGACGAGGAGGAGGUUUAUCGAAUUUUCGGCGGAUGCCUUGAAA [C70U C71G] | 0.000124 ± 1e-05 | 8.39e-05 ± 8.3e-06 | 0.000118 ± 9.3e-06 | 7e-05 ± 1.3e-05 | 0.00012 ± 1.1e-05 | 242 ± 98 | –
15 | AUAAAAGCGCCAGAACUACAGAAAUGUAGUUGACGAGGAGGAGGUUUAUCGAAUUUUCGGCGGAUGGCACCAAA [C67G U69A] | 1.14e-05 ± 5.3e-06 | – | – | – | – | – | –
16 | AUAAAAGCGCCAGAACUACAGAAAUGUAGUUGACGAGGAGGAGGUUUAUCGAAUUUUCGGCGGAUGCCCUCAAA [U69C C70U] | 0.000681 ± 0.00015 | 0.000254 ± 3.7e-05 | 0.000524 ± 7.1e-05 | 0.000108 ± 2.4e-05 | 0.000743 ± 0.00018 | 854 ± 350 | 5.3e-05 ± 1.3e-05
17 | AUAAAAGCGCCAGAACUACAGAAAUGUAGUUGACGAGGAGGAGGUUUAUCGAAUUUUCGGCGGAUGCCUGGAAA [C70G C71G] | 3.62e-05 ± 7e-06 | 5.98e-05 ± 1.4e-05 | 3.62e-05 ± 9.7e-06 | 3.85e-05 ± 1.4e-05 | 2.86e-05 ± 7.6e-06 | – | –
18 | AUAAAAGCGCCAGAACUACAGAAAUGUAGUUGACGAGGAGGAGGUUUAUCGAAUUUUCGGCGGAUGGCUCGAAA [C67G C71G] | 1.33e-05 ± 4.1e-06 | – | – | – | – | – | –
19 | AUAAAAGCGCCAGAACUACAGAAAUGUAGUUGACGAGGAGGAGGUUUAUCGAAUUUUCGGCGGAUGUCACCAAA [C67U U69A] | 4.62e-05 ± 6.3e-06 | 5e-05 ± 1.8e-05 | 4.79e-05 ± 1.1e-05 | – | 3.56e-05 ± 1.5e-05 | – | < 1e-05
20 | AUAAAAGCGCCAGAACUACAGAAAUGUAGUUGACGAGGAGGAGGUUUAUCGAAUUUUCGGCGGAUGGCUUCAAA [C67G C70U] | 0.000163 ± 2.9e-06 | 4.24e-05 ± 6e-06 | 9.79e-05 ± 8.3e-06 | – | 0.000137 ± 8.4e-06 | 1750 ± 88 | –
21 | AUAAAAGCGCCAGAAUUACAGAAAUGUAGUUGACGAGGAGGAGGUUUAUCGAAUGUUCGGCGGAUGCUUCCAAA [C16U U55G C68U] | – | 0.00106 ± 0.0003 | 0.00118 ± 0.00028 | 0.000342 ± 0.00016 | 0.00354 ± 0.00087 | 507 ± 230 | 0.000134 ± 2.4e-05

— the supplement of paper PMC7125110
